“And” between values parts separate entries of the source, which are not always exact repeats. Equal values may be shown once. Read-outs that look alike come from different tables or passages of the source.
Assays:
[1] = CGA esterase activity in the sunflower meal supernatant and pellet (HPLC); assay type: biochemical; details: for Pellet mg CA/g meal / Pellet mg CGA/g meal / Supernatant mg CA/g meal / Supernatant mg CGA/g meal: enzyme present
Description: Sunflower meal and sunflower protein treatment with chlorogenic acid esterase. Sunflower seeds were ground using a KitchenAid coffee grinder in two 30 s increments and sieved through a 500 μm filter to make SFM. Two defatting methods were used: cold press and hexane extraction. To make cold pressed SFM, ground seeds were pressed in a Carver Hydraulic Unit Model 3912 3852-0 five times to a pressure of 9,000-10,000 psi. For hexane extracted SFM, fat was removed from ground seeds using a Soxhlet apparatus in 250 mL hexane for 18 h and subsequently dried using a Fischer Scientific Isotemp Oven Model 516G at 45° C. for 3 h. Cold pressed, hexane extracted, and undefatted SFM were then sieved through a 500 μm filter.
Chlorogenic acid esterase activity in the sunflower meal supernatant and pellet. SFM (1 g) that was cold pressed, hexane extracted, or undefatted was buffered in 10 mL of 50 mM HEPES, pH 8.0. CGA esterase was added to a final concentration of 0.756 μM (0.02 mg mL^−1). Untreated samples received a solution of 50 mM HEPES, pH 8.0 instead of CGA esterase. Samples treated with CGA esterase were allowed to sit for 10 min and subsequently centrifuged at 10,000 rpm for 10 min. The supernatant was filtered through a 0.2 μm filter and loaded onto an HPLC while the pellet was lyophilized for 20 h. After lyophilization, 10 mL of 70% ethanol was then added to the dried pellet for 1 h to extract CGA. The pellet was subsequently centrifuged at 10,000 rpm for 10 min. The supernatant was then filtered through a 0.2 μm filter and loaded onto an HPLC.
HPLC quantification of CGA and CA in sunflower meal and protein isolates. All solutions were diluted ten-fold in 0.1% formic acid in HPLC-grade water before analysis. Quantification of CGA and CA concentration was performed using an Agilent 1260 series HPLC instrument (Agilent Technologies) equipped with a quaternary pump, an automated sample injector, a diode array detector, and a 4.6 mm×150 mm Luna C18(2) column with a 5 μm particle size and 100 Å pore size (Phenomenex). The injection volume was 20 μL. To elute analytes, mobile phases composed of 0.1% formic acid in HPLC-grade water (A) and 0.1% formic acid in HPLC-grade acetonitrile (B) were used in a linear gradient. The gradient is as follows: 0 to 13% B in 1 min, up to 27% B at 8 min, up to 100% B at 8.5 min, isocratic at 100% B to 9.5 min, 100% B returned to 0% B at 9.6 min with 3 min post-time. The concentrations of CGA and CA were calculated from peak integration data based on 10-point standard curve that spanned a concentration range of 0 to 0.1 mg mL^−1.

[2] = Michaelis-Menten assay of CGA hydrolysis in buffer (absorption spectroscopy); assay type: biochemical; details: for kcat: CGA in buffer, room temperature
Protocol: Enzymatic assays to determine Michaelis-Menten parameters. Michaelis-Menten assays were conducted at 21° C. using an Agilent Technologies Cary 60 UV-Vis spectrophotometer. A stock solution of CGA was prepared by dissolving CGA in 50 mM HEPES pH 8.0 followed by calculation of concentration using the Lambert-Beer law with an extinction coefficient of 17,194 M^−1 cm^−1 at 330 nm. Subsequent dilutions of stock CGA were prepared to achieve final CGA concentrations of 0.02 mM, 0.04 mM, 0.06 mM, 0.10 mM, 0.20 mM, and 0.40 mM CGA. The final CGA esterase concentration in all enzymatic assays was 10 nM unless noted otherwise. All samples used for enzymatic assays were buffered in 50 mM HEPES, pH 8.0. Absorption scans were taken at 0.05 or 0.1 min intervals for 2 min between wavelengths of 250 nm and 400 nm. For CGA concentrations below 0.1 mM, the pathlength was 1 cm. Above 0.1 mM CGA, the pathlength was 0.5 cm.
To measure CGA depletion (Δ[CGA]), Equation 1 was used: […]
A is the absorbance at any time point in the reaction, Ao is the initial absorbance, εCA and εCGA are the extinction coefficients at 340 nm of caffeic acid (CA) and CGA, which are 4.15 mM^−1 cm^−1 and 14.43 mM^−1 cm^−1, respectively. To generate initial rates, (Δ[CGA]| was plotted against time. The change in absorbance during the first minute of the reaction was fit to a linear curve, which is used to generate the reaction rate. We note that the rate of CGA depletion is equivalent to CA formation. To test the effect of salt on enzyme kinetics, the same procedure was used, except that the experiment was run with 0.04 mM CGA buffered in 50 mM HEPES pH 8.0 with 500 mM NaCl.
Temperature-dependence measurements. A circulating water bath was used to run enzymatic reactions at different temperatures to maintain the temperature in the spectrophotometer within 1° C. of the target temperature. Buffered solution, CGA, and CGA esterase samples were pre-incubated for 10 min at the desired temperature before starting a measurement. All other instrument parameters were the same as for room temperature measurements described above.

[3] = Song & Baik, 2017; cited from earlier work
[4] = Circular dichroism thermal and pH stability; assay type: physicochemical
Protocol: Circular dichroism, dynamic light scattering and mass spectrometry. Circular dichroism (CD) spectra were taken on a Jasco J-1500 CD spectrophotometer. CGA esterase (0.2 mg mL^−1) was buffered in a solution of approximately 5 mM HEPES, pH 8.0. Spectra were recorded at 4° C. using the following settings: 100 nm min^−1 scan rate, 0.2 nm data pitch, 1.0 nm bandwidth, and 2 s integration time. Five acquisitions were averaged per experimental sample. […] The Tm was estimated by fitting a Boltzmann sigmoidal function to the denaturation curve. For CD spectra that were run at different pH, a concentrated CGA esterase stock solution was diluted to either 0.2 mg mL^−1 or 0.1 mg mL^−1 into solutions of 10 mM buffer at the pH indicated.

[5] = CGA in 50 mM HEPES pH 8.0, 20° C.

Pellet mg CA/g meal ([1]; cold pressed SFM): 0.81 ± 0.11 mg CA/g meal
Pellet mg CGA/g meal ([1]; cold pressed SFM): 0.02 ± 0.00 mg CGA/g meal
Supernatant mg CA/g meal ([1]; cold pressed SFM): 3.33 ± 0.15 mg CA/g meal
Supernatant mg CGA/g meal ([1]; cold pressed SFM): 0.00 ± 0.00 mg CGA/g meal
CGA cleavage ([1]; defatted samples): > 99%
Pellet mg CA/g meal ([1]; hexane extracted SFM): 1.55 ± 0.14 mg CA/g meal
Pellet mg CGA/g meal ([1]; hexane extracted SFM): 0.03 ± 0.00 mg CGA/g meal
Supernatant mg CA/g meal ([1]; hexane extracted SFM): 3.77 ± 0.10 mg CA/g meal
Supernatant mg CGA/g meal ([1]; hexane extracted SFM): 0.00 ± 0.00 mg CGA/g meal
Pellet mg CA/g meal ([1]; undefatted SFM): 0.34 ± 0.03 mg CA/g meal
Pellet mg CGA/g meal ([1]; undefatted SFM): 0.11 ± 0.01 mg CGA/g meal
Supernatant mg CA/g meal ([1]; undefatted SFM): 1.52 ± 0.08 mg CA/g meal
Supernatant mg CGA/g meal ([1]; undefatted SFM): 0.00 ± 0.00 mg CGA/g meal
CGA cleavage ([1]; undefatted samples): ca. 96%
Temperature until which the enzyme is active [2]: at least 50 °C
B1: CGA esterase: CGA esterase from L. helveticus (Genbank ID: WP_025283955.1, Uniprot ID: U6F2K7), expressed in Escherichia coli; the dimer is the active form (protein, listed as Lactobacillus helveticus)
chain: MSRITIERDGLTLVGDREEPFGEIYDMAIIMHGFAANRNTDLLRQIADDLRDENVASVRFDFNGHGESDGKFEDMTVCNEIADGKAILDYVRTDPHVRDIFLVGHSQGGVVASMLAGLYPDVVKKVVLLAPAAQLKDDALRSNTQGATYDPNHIPDWPLVGNKLGMKLGGFYLRTAQVLPIYEVSQCFTRPVSVIAGTNDQWDPKYAKKYDEVYENSELHMIPNADHRFSGGYKDMAADLTAQFLKPAF
Conversion of CGA into caffeic and quinic acid ([1]; SFM, in 10 min): ~100%
Change of CGA esterase activity with temperature ([2]; 20° C. to 50° C.): increases only weakly
Km ([2]; 40° C.): 96 ± 6 µM
Vmax ([2]; 40° C.): 215.4 ± 31.7 mM/min/mg
Km [2, 5]: 90 ± 38 µM
Vmax [2, 5]: 170.2 ± 32.3 mM/min/mg
Vmax ([2]; CGA in 50 mM HEPES pH 8.0, 20° C., listed as L. helveticus): 170.2 mM/min/mg
kcat [2]: 82 s⁻¹ and 82 ± 15.6 s⁻¹
kcat ([2]; listed as L. helveticus CGA esterase): 82 s⁻¹
kcat ([2]; listed as chlorogenic acid esterase from Lactobacillus helveticus): 82 s⁻¹
Vmax higher than previously reported ([2]; vs Song & Baik, 2017): 300 fold
Km [3]: 153 µM
Vmax [3]: 0.5596 mM/min/mg
Tm ([4]; CD signal at 222 nm, thermal denaturation): 65 °C
pH range over which the protein is stable (CD spectra) ([4]; room temperature (21° C.)): 6.0-9.0 pH

From patent US12630850B2, “Enzymatic break down of chlorogenic acid in sunflower-containing products” (Chapman University, priority 2022, dated 2026)
